Measured values taken from paper PMC9737104, “Effects of Molecular Crowding and Betaine on HSPB5 Interactions, with Target Proteins Differing in the Quaternary Structure and Aggregation Mechanism” (International Journal of Molecular Sciences, 2022).

Molecular target: the molecule itself
Experiment: AUC; sedimentation velocity at 25 °C, 48,000 rpm; GDH 0.2 mg/mL with HSPB5 0.05 mg/mL, 25 mg/mL PEG and 1 M betaine, heated 10 min at 50 °C before the run; 0.1 M Na-phosphate pH 7.6, 0.01 M NaCl

B1: bovine liver glutamate dehydrogenase, heated 10 min at 50 °C (enzyme)
chain: not shown
notes: bovine liver glutamate dehydrogenase [EC 1.4.1.2-4], homohexamer of about 360 kDa; also called GDH; source: bought: Sigma-Aldrich (suspension in ammonium sulfate), desalted on a PD-10 column
- stoichiometry N: 6
